Measured values: the supplement of paper PMC10065799, “High-throughput profiling of sequence recognition by tyrosine kinases and SH2 domains using bacterial peptide display” (eLife, 2023)

Key:
SHP2-C SH2 = test: SH2 binding enrichment of the phosphorylated peptide, bacterial display (enrichment ratio); higher = better substrate or ligand; peptides without Tyr show the background
c-Src SH2 = test: as above
Grb2 SH2 = Grb2 SH2 (UniProt P62993); test: as above
EPHB2 = EPHB2 (UniProt P29323); test: phosphorylation enrichment, bacterial display (enrichment ratio); higher = better substrate or ligand; peptides without Tyr show the background
Fer (mouse) = test: as above
Hck = Hck (UniProt P08631); test: as above
c-Abl (mouse) = test: as above
EPHB1 = EPHB1 (UniProt P54762); test: as above
FGFR3 = FGFR3 (UniProt P22607); test: as above
FGFR1 = FGFR1 (UniProt P11362); test: as above
c-Src = test: as above
Jak2 = Jak2 (UniProt O60674); test: as above
Fyn = Fyn (UniProt P06241); test: as above
AncSZ = test: as above
Fes = Fes (UniProt P07332); test: as above
MERTK = MERTK (UniProt Q12866); test: as above
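Wherever SH2 binding enrichment of the phosphorylated peptide, bacterial display is given: peptide library displayed on the E. coli surface as eCPX fusions, selected cells deep-sequenced, score is each peptide's frequency after selection divided by its frequency in the input.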
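Wherever phosphorylation enrichment, bacterial display is given: 11-residue human phosphosite peptides and single-mutation variants displayed on the E. coli surface, counted by deep sequencing, each peptide's frequency after selection divided by its frequency in the unselected input library; frequency after pTyr selection over input frequency; kinase dosed for 20-30% of maximal phosphorylation in three min.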

FGFR1, sequence (P11362 whole entry, looked up): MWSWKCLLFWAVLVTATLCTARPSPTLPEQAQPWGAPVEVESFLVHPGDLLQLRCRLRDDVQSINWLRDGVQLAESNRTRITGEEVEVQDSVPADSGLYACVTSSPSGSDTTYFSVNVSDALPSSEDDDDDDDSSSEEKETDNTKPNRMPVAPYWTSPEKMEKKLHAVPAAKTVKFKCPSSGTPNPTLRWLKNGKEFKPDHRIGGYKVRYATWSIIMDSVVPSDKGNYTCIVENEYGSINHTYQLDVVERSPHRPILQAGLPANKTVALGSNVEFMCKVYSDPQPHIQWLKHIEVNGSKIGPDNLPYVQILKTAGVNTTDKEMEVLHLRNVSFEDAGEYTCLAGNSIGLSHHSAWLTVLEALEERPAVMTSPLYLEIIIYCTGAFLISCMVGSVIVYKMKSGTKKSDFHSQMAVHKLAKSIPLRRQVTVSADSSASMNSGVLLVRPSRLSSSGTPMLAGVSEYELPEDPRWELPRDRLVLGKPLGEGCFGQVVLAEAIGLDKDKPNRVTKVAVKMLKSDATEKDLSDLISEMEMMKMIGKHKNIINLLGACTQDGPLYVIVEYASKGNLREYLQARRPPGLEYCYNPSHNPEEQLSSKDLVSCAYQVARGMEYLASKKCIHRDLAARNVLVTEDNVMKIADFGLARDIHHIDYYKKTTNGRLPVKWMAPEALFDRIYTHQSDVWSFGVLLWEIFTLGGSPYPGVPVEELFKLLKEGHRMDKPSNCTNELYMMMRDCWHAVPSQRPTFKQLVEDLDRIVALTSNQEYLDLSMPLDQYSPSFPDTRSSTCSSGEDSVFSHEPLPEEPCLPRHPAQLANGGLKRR
Hck, sequence (P08631 whole entry, looked up): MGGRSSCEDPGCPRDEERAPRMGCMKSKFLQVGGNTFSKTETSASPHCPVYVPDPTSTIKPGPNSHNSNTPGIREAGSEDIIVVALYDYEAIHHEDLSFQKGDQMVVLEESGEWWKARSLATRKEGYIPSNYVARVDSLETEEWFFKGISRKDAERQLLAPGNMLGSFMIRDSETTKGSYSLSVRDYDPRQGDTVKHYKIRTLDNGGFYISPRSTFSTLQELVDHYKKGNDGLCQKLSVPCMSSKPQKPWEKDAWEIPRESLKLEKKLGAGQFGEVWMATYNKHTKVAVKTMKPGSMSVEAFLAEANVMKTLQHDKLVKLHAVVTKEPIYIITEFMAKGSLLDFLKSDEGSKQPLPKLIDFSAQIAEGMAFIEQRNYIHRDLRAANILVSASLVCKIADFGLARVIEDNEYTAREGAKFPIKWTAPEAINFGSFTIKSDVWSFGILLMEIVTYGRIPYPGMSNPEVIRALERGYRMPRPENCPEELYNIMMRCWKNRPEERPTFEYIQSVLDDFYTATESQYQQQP
MERTK, sequence (Q12866 whole entry, looked up, the tested form may be a part): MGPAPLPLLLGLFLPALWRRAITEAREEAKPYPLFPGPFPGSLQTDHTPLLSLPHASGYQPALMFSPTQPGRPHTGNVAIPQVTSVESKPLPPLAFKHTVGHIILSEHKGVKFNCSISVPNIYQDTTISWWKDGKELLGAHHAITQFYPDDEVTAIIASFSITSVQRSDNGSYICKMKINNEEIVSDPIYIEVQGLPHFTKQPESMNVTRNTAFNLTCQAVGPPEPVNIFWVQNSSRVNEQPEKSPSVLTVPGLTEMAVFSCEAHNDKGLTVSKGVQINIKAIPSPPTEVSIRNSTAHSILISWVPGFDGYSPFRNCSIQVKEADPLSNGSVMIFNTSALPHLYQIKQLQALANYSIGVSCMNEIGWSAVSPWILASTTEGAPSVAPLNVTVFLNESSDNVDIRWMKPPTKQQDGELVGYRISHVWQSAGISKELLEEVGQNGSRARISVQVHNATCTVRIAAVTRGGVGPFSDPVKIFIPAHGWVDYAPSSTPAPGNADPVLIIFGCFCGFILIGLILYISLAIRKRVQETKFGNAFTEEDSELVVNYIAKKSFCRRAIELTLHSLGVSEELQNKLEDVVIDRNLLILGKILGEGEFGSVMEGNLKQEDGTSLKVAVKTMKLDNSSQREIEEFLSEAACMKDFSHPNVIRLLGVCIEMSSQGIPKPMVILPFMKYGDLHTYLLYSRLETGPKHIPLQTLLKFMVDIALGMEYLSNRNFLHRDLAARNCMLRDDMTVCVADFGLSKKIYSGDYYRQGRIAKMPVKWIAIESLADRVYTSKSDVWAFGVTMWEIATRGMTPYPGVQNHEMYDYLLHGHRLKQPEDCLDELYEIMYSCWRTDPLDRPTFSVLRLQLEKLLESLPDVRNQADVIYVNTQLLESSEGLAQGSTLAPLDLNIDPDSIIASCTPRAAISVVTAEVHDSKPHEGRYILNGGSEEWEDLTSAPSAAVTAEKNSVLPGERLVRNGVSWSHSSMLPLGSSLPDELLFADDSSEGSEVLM
Fes, sequence (P07332 whole entry, looked up): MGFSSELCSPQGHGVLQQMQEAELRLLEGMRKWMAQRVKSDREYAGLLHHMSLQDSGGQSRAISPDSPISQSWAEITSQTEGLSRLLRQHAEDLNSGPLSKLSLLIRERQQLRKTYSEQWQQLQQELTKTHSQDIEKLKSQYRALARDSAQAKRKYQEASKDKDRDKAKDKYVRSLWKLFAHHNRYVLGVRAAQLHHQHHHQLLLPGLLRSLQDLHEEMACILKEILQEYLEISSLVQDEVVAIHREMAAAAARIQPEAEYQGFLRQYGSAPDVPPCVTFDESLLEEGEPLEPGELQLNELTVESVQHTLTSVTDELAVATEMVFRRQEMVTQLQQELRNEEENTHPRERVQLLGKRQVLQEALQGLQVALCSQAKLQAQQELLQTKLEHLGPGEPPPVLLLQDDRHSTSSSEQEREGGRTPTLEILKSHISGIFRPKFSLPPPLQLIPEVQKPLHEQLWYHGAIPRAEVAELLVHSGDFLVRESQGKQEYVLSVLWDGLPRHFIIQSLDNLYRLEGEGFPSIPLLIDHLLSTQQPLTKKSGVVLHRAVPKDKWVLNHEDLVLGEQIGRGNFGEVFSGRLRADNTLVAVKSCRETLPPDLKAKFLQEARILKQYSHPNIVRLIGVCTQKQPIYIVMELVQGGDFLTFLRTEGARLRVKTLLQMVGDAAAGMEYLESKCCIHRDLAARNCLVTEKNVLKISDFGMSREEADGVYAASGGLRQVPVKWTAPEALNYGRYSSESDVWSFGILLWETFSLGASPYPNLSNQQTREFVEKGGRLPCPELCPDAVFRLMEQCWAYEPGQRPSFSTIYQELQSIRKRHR
EPHB2, sequence (P29323 whole entry, looked up): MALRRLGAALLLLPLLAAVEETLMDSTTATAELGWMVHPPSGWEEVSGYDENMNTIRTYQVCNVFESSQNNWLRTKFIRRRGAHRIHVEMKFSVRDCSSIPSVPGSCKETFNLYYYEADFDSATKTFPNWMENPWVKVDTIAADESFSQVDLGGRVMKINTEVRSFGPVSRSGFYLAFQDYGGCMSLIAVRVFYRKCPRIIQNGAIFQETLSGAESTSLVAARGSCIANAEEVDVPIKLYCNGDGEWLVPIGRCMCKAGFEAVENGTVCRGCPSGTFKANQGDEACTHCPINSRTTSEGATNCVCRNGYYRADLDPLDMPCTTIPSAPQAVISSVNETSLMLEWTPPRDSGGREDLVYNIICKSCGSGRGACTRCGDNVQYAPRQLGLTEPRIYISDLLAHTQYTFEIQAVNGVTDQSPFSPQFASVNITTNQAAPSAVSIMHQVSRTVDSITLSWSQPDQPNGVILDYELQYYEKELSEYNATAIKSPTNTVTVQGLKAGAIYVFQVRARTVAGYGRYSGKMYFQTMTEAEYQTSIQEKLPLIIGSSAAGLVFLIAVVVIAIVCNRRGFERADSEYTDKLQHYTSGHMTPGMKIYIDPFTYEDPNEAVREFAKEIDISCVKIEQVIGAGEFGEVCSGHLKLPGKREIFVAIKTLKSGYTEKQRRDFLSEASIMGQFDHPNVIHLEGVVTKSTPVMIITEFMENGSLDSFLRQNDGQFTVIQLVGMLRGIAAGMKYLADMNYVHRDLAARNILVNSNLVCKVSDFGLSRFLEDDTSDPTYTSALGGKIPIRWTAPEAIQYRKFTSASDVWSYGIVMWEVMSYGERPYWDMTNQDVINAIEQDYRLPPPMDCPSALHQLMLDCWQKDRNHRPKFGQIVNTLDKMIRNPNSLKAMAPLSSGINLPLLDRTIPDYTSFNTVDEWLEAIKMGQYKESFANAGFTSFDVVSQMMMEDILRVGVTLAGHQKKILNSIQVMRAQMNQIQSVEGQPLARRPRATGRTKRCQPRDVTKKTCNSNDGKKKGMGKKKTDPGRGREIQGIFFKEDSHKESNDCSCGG
FGFR3, sequence (P22607 whole entry, looked up): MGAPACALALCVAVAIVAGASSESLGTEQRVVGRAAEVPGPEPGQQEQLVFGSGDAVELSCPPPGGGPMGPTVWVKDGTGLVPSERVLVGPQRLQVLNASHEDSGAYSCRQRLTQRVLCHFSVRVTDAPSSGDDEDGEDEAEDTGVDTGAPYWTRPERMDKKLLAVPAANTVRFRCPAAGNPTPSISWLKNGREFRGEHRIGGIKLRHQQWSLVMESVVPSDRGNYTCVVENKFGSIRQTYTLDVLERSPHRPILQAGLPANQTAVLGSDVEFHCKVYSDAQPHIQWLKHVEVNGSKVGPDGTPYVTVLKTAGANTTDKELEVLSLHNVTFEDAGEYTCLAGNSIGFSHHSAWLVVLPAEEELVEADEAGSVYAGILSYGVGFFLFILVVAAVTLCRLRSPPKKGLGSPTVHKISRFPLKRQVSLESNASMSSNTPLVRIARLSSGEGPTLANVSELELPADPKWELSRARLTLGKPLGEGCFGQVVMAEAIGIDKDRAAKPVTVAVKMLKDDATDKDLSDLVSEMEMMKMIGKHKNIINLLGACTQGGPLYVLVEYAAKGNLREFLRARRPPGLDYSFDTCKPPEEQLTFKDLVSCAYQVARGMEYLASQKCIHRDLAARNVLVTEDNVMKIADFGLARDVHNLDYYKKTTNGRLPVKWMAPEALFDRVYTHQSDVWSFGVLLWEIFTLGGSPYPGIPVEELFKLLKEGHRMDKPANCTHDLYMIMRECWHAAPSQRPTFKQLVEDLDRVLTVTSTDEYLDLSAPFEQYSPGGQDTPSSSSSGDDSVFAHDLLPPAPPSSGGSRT

Row | Sequence | SH2 binding enrichment (SHP2-C SH2) | SH2 binding enrichment (c-Src SH2) | SH2 binding enrichment (Grb2 SH2) | phosphorylation enrichment (EPHB2) | phosphorylation enrichment (Fer (mouse)) | phosphorylation enrichment (Hck) | phosphorylation enrichment (c-Abl (mouse)) | phosphorylation enrichment (EPHB1) | phosphorylation enrichment (FGFR3) | phosphorylation enrichment (FGFR1) | phosphorylation enrichment (c-Src) | phosphorylation enrichment (Jak2) | phosphorylation enrichment (Fyn) | phosphorylation enrichment (AncSZ) | phosphorylation enrichment (Fes) | phosphorylation enrichment (MERTK)
1 | KSLFHYRQYSA [CPS1_Y1491] | 0.521 | 0.379 | 0.749 | 0.602 | 0.408 | 0.512 | 0.567 | 0.527 | 0.646 | 0.531 | 0.493 | 0.686 | 0.54 | 0.778 | 0.808 | 0.469
2 | RQSRNYLGGFA [SYK_Y47] | 0.519 | 0.407 | 0.612 | 0.56 | 0.404 | 0.483 | 0.684 | 0.316 | 0.386 | 0.329 | 0.69 | 0.436 | 0.597 | 0.841 | 0.562 | 1.75
3 | PFSEPYADFGG [APBA1_Y187_YF] | 0.659 | 0.868 | 0.862 | 0.488 | 0.719 | 0.786 | 1.38 | 0.543 | 0.957 | 1 | 3.39 | 0.991 | 1.15 | 1 | 1.29 | 0.76
4 | TNFRLYLRSLE [MTM1_Y71_YF] | 0.661 | 0.449 | 0.678 | 0.782 | 0.612 | 0.513 | 0.798 | 0.895 | 0.964 | 0.538 | 0.476 | 1.29 | 0.449 | 1.37 | 1.49 | 0.43
5 | ADEDIYGVLPA [LYNtide_2014] | 0.794 | 0.401 | 1.02 | 1.36 | 2.99 | 3.51 | 2.19 | 0.705 | 0.982 | 0.606 | 2.97 | 1.28 | 4.82 | 1.49 | 1.36 | 2.76
6 | SKKSTYQALLD [GANC_Y43] | 0.595 | 0.555 | 0.788 | 0.369 | 0.305 | 0.433 | 0.382 | 0.394 | 0.405 | 0.416 | 0.423 | 0.907 | 0.447 | 0.563 | 0.541 | 0.403
7 | LIDGFYRLTED [JAK2_Y373_A377E_YF] | 0.678 | 0.661 | 0.699 | 0.89 | 0.613 | 0.552 | 0.974 | 0.586 | 0.747 | 0.537 | 0.895 | 1.11 | 0.66 | 1.31 | 1.54 | 0.549
8 | VFAANYFKLLG [ROR2_Y645_D644N_YF] | 0.985 | 1.03 | 0.991 | 0.648 | 0.472 | 0.526 | 0.73 | 0.645 | 1.58 | 2.44 | 0.56 | 5.33 | 0.58 | 0.872 | 1.04 | 1.13
9 | KKARAYGPGIE [FLNA_Y287] | 0.855 | 0.408 | 0.693 | 0.335 | 0.38 | 0.405 | 0.468 | 0.328 | 0.343 | 0.323 | 0.392 | 0.418 | 0.357 | 0.576 | 0.446 | 0.399
10 | EFAAGYNVKFD [GPX4_Y123] | 0.727 | 0.503 | 0.707 | 0.397 | 0.483 | 0.449 | 0.389 | 0.425 | 0.544 | 0.697 | 0.419 | 0.502 | 0.465 | 0.739 | 0.862 | 0.461
11 | WAMPAYNRSKL [WWOX_Y293_L291P] | 0.668 | 0.431 | 0.909 | 0.357 | 0.281 | 0.263 | 0.339 | 0.289 | 0.324 | 0.296 | 0.298 | 0.402 | 0.328 | 0.457 | 0.451 | 0.257
12 | PLSGEYFTLQI [TP53_Y327_D324S] | 0.679 | 0.432 | 0.793 | 1.2 | 0.722 | 1.89 | 2.51 | 1.82 | 9.65 | 13.7 | 3.48 | 6.87 | 4.49 | 3.93 | 1.62 | 0.763
13 | TLMNAYSSCSH [KIF11_Y231_R234C] | 0.658 | 1.24 | 0.808 | 0.566 | 0.599 | 0.557 | 0.597 | 0.465 | 0.566 | 0.436 | 0.45 | 0.642 | 0.462 | 0.702 | 0.803 | 0.496
14 | TEQDPYNNIDR [MMUT_Y364_V368D] | 0.731 | 2.23 | 0.798 | 0.565 | 0.486 | 0.501 | 0.658 | 0.638 | 0.641 | 0.728 | 0.486 | 0.791 | 0.505 | 1.08 | 1.06 | 0.475
15 | PLKFLYPNIDK [STAT1_Y668_YF] | 0.647 | 0.72 | 0.714 | 1.3 | 1.13 | 1.09 | 1.38 | 0.945 | 0.822 | 1.54 | 0.939 | 1.65 | 1.16 | 1.26 | 2.18 | 0.846
16 | GVLKEYGVKVL [CPS1_Y529] | 0.688 | 0.408 | 0.863 | 0.322 | 0.362 | 0.431 | 0.334 | 0.369 | 0.569 | 0.384 | 0.424 | 0.391 | 0.378 | 0.52 | 0.642 | 0.488
17 | KMMGRYEMFAR [UPB1_Y362_T359M_YF] | 0.973 | 1.65 | 1.12 | 0.393 | 0.298 | 0.402 | 0.464 | 0.327 | 0.445 | 0.363 | 0.34 | 0.453 | 0.368 | 0.538 | 0.599 | 0.393

More lines, main results first:

Row | SH2 binding enrichment (SHP2-C SH2) | SH2 binding enrichment (c-Src SH2) | SH2 binding enrichment (Grb2 SH2) | Sequence | phosphorylation enrichment (EPHB2) | phosphorylation enrichment (Fer (mouse)) | phosphorylation enrichment (Hck) | phosphorylation enrichment (c-Abl (mouse)) | phosphorylation enrichment (EPHB1) | phosphorylation enrichment (FGFR3) | phosphorylation enrichment (FGFR1) | phosphorylation enrichment (c-Src) | phosphorylation enrichment (Jak2) | phosphorylation enrichment (Fyn) | phosphorylation enrichment (AncSZ) | phosphorylation enrichment (Fes) | phosphorylation enrichment (MERTK)
18 | 0.617 | 0.431 | 1.32 | KTTSGYAGGLS [KRT8_Y419] | 0.304 | 0.422 | 0.289 | 0.456 | 0.332 | 0.376 | 0.398 | 0.369 | 0.373 | 0.33 | 0.404 | 0.496 | 0.3
19 | 3.39 | 1.71 | 1.15 | LGRTVYADCLA [ABCA4_Y2063_L2060R] | 1.61 | 1.4 | 0.989 | 1.39 | 1.26 | 1.37 | 0.918 | 0.903 | 1.76 | 0.902 | 0.983 | 2.65 | 0.939
20 | 0.629 | 0.543 | 0.803 | EREFKYDAHNF [OAT_Y50_G51D_YF] | 0.445 | 0.832 | 0.558 | 0.645 | 0.624 | 0.693 | 0.643 | 0.477 | 0.914 | 0.361 | 0.915 | 1.02 | 0.512
21 | 0.739 | 0.457 | 0.9 | LENSTYQFICV [CRB1_Y760_R764C_YF] | 2.39 | 8.22 | 3.46 | 1.12 | 4.2 | 3.21 | 3.43 | 1.84 | 1.37 | 2.23 | 2.12 | 1.79 | 2.49
22 | 0.7 | 0.347 | 0.879 | FSMGCYEISLE [HMGCL_Y198_G203E_YF] | 0.751 | 1.14 | 0.758 | 1.2 | 0.913 | 0.973 | 0.541 | 1.51 | 1.31 | 0.898 | 2.14 | 1.53 | 0.623
23 | 0.796 | 1.85 | 0.798 | GYEEAYSVSKK [PAFAH1B1_Y28_F31S] | 0.432 | 0.469 | 0.447 | 0.536 | 0.491 | 0.607 | 0.364 | 0.601 | 0.661 | 0.435 | 0.893 | 1.01 | 0.367
24 | 1.14 | 0.988 | 1.34 | RHPFFYAPELL [ALB_Y174_YF] | 1.04 | 1.06 | 0.733 | 1.12 | 1.18 | 0.969 | 1.25 | 1.05 | 1.97 | 1.32 | 1.61 | 1.99 | 0.839
25 | 0.736 | 1.08 | 0.702 | KYLENYYDLEK [MMP3_Y41_K45E] | 4.75 | 0.664 | 1.83 | 0.818 | 9.73 | 6.66 | 8.94 | 2.2 | 1.2 | 5.37 | 1.64 | 1.3 | 0.819
26 | 0.746 | 2.5 | 0.685 | KDGNGYISVAE [CALM3_Y100_A103V] | 0.485 | 0.442 | 0.462 | 0.679 | 0.362 | 0.473 | 0.404 | 0.598 | 0.671 | 0.407 | 0.771 | 0.859 | 0.418
27 | 0.786 | 0.527 | 0.761 | IFLENYNAGTF [CFI_Y421_H418L_YF] | 0.578 | 0.423 | 0.427 | 0.542 | 0.468 | 0.724 | 0.489 | 0.491 | 0.844 | 0.55 | 0.896 | 0.938 | 0.428
28 | 4.87 | 4.93 | 1.45 | CTTIHYNYLCN [TP53_Y234_M237L] | 0.491 | 0.568 | 0.536 | 0.479 | 0.482 | 0.594 | 0.505 | 0.394 | 0.655 | 0.51 | 0.873 | 0.84 | 0.436
29 | 0.679 | 0.465 | 0.775 | EAIAKYDFKAT [GRB2_Y7] | 0.412 | 0.327 | 0.387 | 0.618 | 0.488 | 0.528 | 0.587 | 0.393 | 0.597 | 0.408 | 0.658 | 0.827 | 0.396
30 | 0.781 | 0.503 | 0.956 | SVTCTYSLALN [TP53_Y126_P128L] | 0.6 | 0.558 | 0.628 | 0.951 | 0.688 | 0.802 | 0.653 | 1.65 | 1.13 | 0.78 | 1.21 | 1.38 | 0.614
31 | 0.623 | 1.37 | 0.78 | PLQKTYNYNML [SLC4A1_Y553_V557M] | 1.03 | 0.395 | 0.578 | 0.816 | 0.76 | 0.678 | 0.589 | 0.52 | 0.649 | 0.39 | 0.878 | 1.01 | 0.52
32 | 0.753 | 0.454 | 0.838 | MSNSAYVKREV [SCN1A_Y1694_F1692S] | 0.415 | 0.37 | 0.399 | 0.442 | 0.407 | 0.46 | 0.45 | 0.335 | 0.437 | 0.402 | 0.563 | 0.562 | 0.381
33 | 1.06 | 0.396 | 0.972 | NMSRIYSTTKV [ACE_Y151_A154T] | 0.302 | 0.319 | 0.382 | 0.583 | 0.296 | 0.36 | 0.341 | 0.431 | 0.421 | 0.425 | 0.441 | 0.443 | 0.366
